Measurements published in patent US20220220215A1 (CRESCENDO BIOLOGICS, published 2022).
Where a chain is given by its changes, count along the chain named. Names and notes keep the numbering of the source.

B1: TPP-983: CD137A -6GS-HSA2-6GS-PDA2-His (bispecific antibody)
chain: EVQLVESGGGLVQPGGSLRLSCAASGFTLSNYWMNWVRQAPGKGLEWVANINQDGSERYYVDSVKGRFTISRDNAKNSLYLQMNSLRAEDTAVYYCARGGEGYGVDHYGLDVSGQGTTVTVSSGGGGSGGGGSGGGGSGGGGSGGGGSGGGGSEVQLVESGGGLVKPGGSLRLSCAASGFTFSNYNMNWVRQAPGKGLEWVSSISSAGTHIYYADSVKGRFTISRDNAKNSLYLQMNSLRAEDTAVYYCARDPHSTGWYKDFDYWGQGTLVTVSSGGGGSGGGGSGGGGSGGGGSGGGGSGGGGSEVQLVESGGGVVRPGGSLRLSCAASGFTFDDYAMSWVRQAPGKGLEWVSGITWNAGSTGYADSVKGRFTISRDNAKNSLYLQMNSLRAEDTALYYCVRDKYSYAWSYDDFDIWGQGTMVTVSSAAAHHHHHH
notes: Single-chain VH fusion (CD137 VH, HSA VH, PD-1 VH), His tag
B2: TPP-975: CD137D-6GS-PDA2-6GS-HSA2-His (bispecific antibody)
chain: EVQLVESGGGVVQPGGSLRLSCAASGFTFSNYGMHWVRQAPGKGLEWVAVISNDGNTKTYADSVKGRFTISRDNSKNTLYLQMNSLRAEDTAVYYCAQDETTTVTASYYFDYWGQGTLVTVSSGGGGSGGGGSGGGGSGGGGSGGGGSGGGGSEVQLVESGGGVVRPGGSLRLSCAASGFTFDDYAMSWVRQAPGKGLEWVSGITWNAGSTGYADSVKGRFTISRDNAKNSLYLQMNSLRAEDTALYYCVRDKYSYAWSYDDFDIWGQGTMVTVSSGGGGSGGGGSGGGGSGGGGSGGGGSGGGGSEVQLVESGGGLVKPGGSLRLSCAASGFTFSNYNMNWVRQAPGKGLEWVSSISSAGTHIYYADSVKGRFTISRDNAKNSLYLQMNSLRAEDTAVYYCARDPHSTGWYKDFDYWGQGTLVTVSSAAAHHHHHH
notes: Single-chain VH fusion (CD137 VH, PD-1 VH, HSA VH), His tag
B3: TPP-943: PDA-6GS-172E1-13-6GS-HSA2-His (bispecific antibody)
chain: EVQLVESGGGLVQPGRSLRLSCAASGFTFDDYALHWVRQAPGKDLEWVSGISWNGGSYGYADSVKGRFTISRDNAKNSLYLQMNSLRAEDTALYYCVREKGPGLTGSTADYYGLDAWGQGTMVTVSSGGGGSGGGGSGGGGSGGGGSGGGGSGGGGSEVQLVESGGGVVQPGGSLRLSCAASGFTFSNYGMHWVRQAPGKGLEWVAVISNDGNTKTYADSVKGRFTISRDNSKNTLYLQMNSLRAEDTAVYYCAQDETTTVTASYYFDYWGQGTLVTVSSGGGGSGGGGSGGGGSGGGGSGGGGSGGGGSEVQLLESGGGLVKPGGSLRLSCAASGFTVSSYTMNWVRQAPGKGLEWVSSISSSGRYIYYADSVKGRFTISRDNAKNSLYLQMNSLRAEDTAVYYCARDPRMVGNPHEFDIWGQGTMVTVSSAAAHHHHHH
notes: Single-chain VH fusion
B4: TPP-984: CD137D -6GS-HSA2-6GS-PDA-His (bispecific antibody)
chain: EVQLVESGGGVVQPGGSLRLSCAASGFTFSNYGMHWVRQAPGKGLEWVAVISNDGNTKTYADSVKGRFTISRDNSKNTLYLQMNSLRAEDTAVYYCAQDETTTVTASYYFDYWGQGTLVTVSSGGGGSGGGGSGGGGSGGGGSGGGGSGGGGSEVQLVESGGGLVKPGGSLRLSCAASGFTFSNYNMNWVRQAPGKGLEWVSSISSAGTHIYYADSVKGRFTISRDNAKNSLYLQMNSLRAEDTAVYYCARDPHSTGWYKDFDYWGQGTLVTVSSGGGGSGGGGSGGGGSGGGGSGGGGSGGGGSEVQLVESGGGLVQPGRSLRLSCAASGFTFDDYALHWVRQAPGKDLEWVSGISWNGGSYGYADSVKGRFTISRDNAKNSLYLQMNSLRAEDTALYYCVREKGPGLTGSTADYYGLDAWGQGTMVTVSSAAAHHHHHH
notes: as for B1
B5: TPP-950: PDA2-6GS-172E1-13-6GS-HSA2-His (bispecific antibody)
chain: EVQLVESGGGVVRPGGSLRLSCAASGFTFDDYAMSWVRQAPGKGLEWVSGITWNAGSTGYADSVKGRFTISRDNAKNSLYLQMNSLRAEDTALYYCVRDKYSYAWSYDDFDIWGQGTMVTVSSGGGGSGGGGSGGGGSGGGGSGGGGSGGGGSEVQLVESGGGVVQPGGSLRLSCAASGFTFSNYGMHWVRQAPGKGLEWVAVISNDGNTKTYADSVKGRFTISRDNSKNTLYLQMNSLRAEDTAVYYCAQDETTTVTASYYFDYWGQGTLVTVSSGGGGSGGGGSGGGGSGGGGSGGGGSGGGGSEVQLVESGGGLVKPGGSLRLSCAASGFTFSNYNMNWVRQAPGKGLEWVSSISSAGTHIYYADSVKGRFTISRDNAKNSLYLQMNSLRAEDTAVYYCARDPHSTGWYKDFDYWGQGTLVTVSSAAAHHHHHH
notes: Single-chain VH fusion (PD-1 VH, CD137 VH, HSA VH), His tag
B6: TPP-957; PD138G7(G109D)-6GS-172E1-13-6GS-HSA2-His (bispecific antibody)
chain: B5 chain with A55G, G66D
notes: as for B5
B7: TPP-951: PDA2-6GS-172E1-13-6GS-HSA3-His (bispecific antibody)
chain: EVQLVESGGGVVRPGGSLRLSCAASGFTFDDYAMSWVRQAPGKGLEWVSGITWNAGSTGYADSVKGRFTISRDNAKNSLYLQMNSLRAEDTALYYCVRDKYSYAWSYDDFDIWGQGTMVTVSSGGGGSGGGGSGGGGSGGGGSGGGGSGGGGSEVQLVESGGGVVQPGGSLRLSCAASGFTFSNYGMHWVRQAPGKGLEWVAVISNDGNTKTYADSVKGRFTISRDNSKNTLYLQMNSLRAEDTAVYYCAQDETTTVTASYYFDYWGQGTLVTVSSGGGGSGGGGSGGGGSGGGGSGGGGSGGGGSEVQLLESGGGLVKPGGSLRLSCAASGFTVSSYTMNWVRQAPGKGLEWVSSISSSGRYIYYADSVKGRFTISRDNAKNSLYLQMNSLRAEDTAVYYCARDPRMVGNPHEFDIWGQGTMVTVSSAAAHHHHHH
notes: as for B5
B8: TPP-958: PD138G7(G109D)-6GS-172E1-13-6GS-HSA3-His (bispecific antibody)
chain: B7 chain with A55G, G66D
notes: as for B5
B9: TPP-982: CD137A -6GS-HSA2-6GS-PDA-His (bispecific antibody)
chain: EVQLVESGGGLVQPGGSLRLSCAASGFTLSNYWMNWVRQAPGKGLEWVANINQDGSERYYVDSVKGRFTISRDNAKNSLYLQMNSLRAEDTAVYYCARGGEGYGVDHYGLDVSGQGTTVTVSSGGGGSGGGGSGGGGSGGGGSGGGGSGGGGSEVQLVESGGGLVKPGGSLRLSCAASGFTFSNYNMNWVRQAPGKGLEWVSSISSAGTHIYYADSVKGRFTISRDNAKNSLYLQMNSLRAEDTAVYYCARDPHSTGWYKDFDYWGQGTLVTVSSGGGGSGGGGSGGGGSGGGGSGGGGSGGGGSEVQLVESGGGLVQPGRSLRLSCAASGFTFDDYALHWVRQAPGKDLEWVSGISWNGGSYGYADSVKGRFTISRDNAKNSLYLQMNSLRAEDTALYYCVREKGPGLTGSTADYYGLDAWGQGTMVTVSSAAAHHHHHH
notes: as for B1
B10: TPP-971: PDA2-6GS-HSA2-6GS-172E1-13-His (bispecific antibody)
chain: EVQLVESGGGVVRPGGSLRLSCAASGFTFDDYAMSWVRQAPGKGLEWVSGITWNAGSTGYADSVKGRFTISRDNAKNSLYLQMNSLRAEDTALYYCVRDKYSYAWSYDDFDIWGQGTMVTVSSGGGGSGGGGSGGGGSGGGGSGGGGSGGGGSEVQLVESGGGLVKPGGSLRLSCAASGFTFSNYNMNWVRQAPGKGLEWVSSISSAGTHIYYADSVKGRFTISRDNAKNSLYLQMNSLRAEDTAVYYCARDPHSTGWYKDFDYWGQGTLVTVSSGGGGSGGGGSGGGGSGGGGSGGGGSGGGGSEVQLVESGGGVVQPGGSLRLSCAASGFTFSNYGMHWVRQAPGKGLEWVAVISNDGNTKTYADSVKGRFTISRDNSKNTLYLQMNSLRAEDTAVYYCAQDETTTVTASYYFDYWGQGTLVTVSSAAAHHHHHH
notes: Single-chain VH fusion (PD-1 VH, HSA VH, CD137 VH), His tag

Experiments:
[1] = biological target: T1, human CD137 expressed on CHO cells (human, UniProt Q07011 18-255); assay: FMAT/Mirrorball on CHO huCD137 cells
T1 construct: also called CHO huCD137; CHO human CD137 cells
Description: (§1) Binding of His-tagged molecules to CHO human CD137, CHO parent and CHO human PD1 cells was assessed using Fluorescence Microvolume Assay Technology (FMAT). All reagents were prepared in FMAT assay buffer (pH 7.4) containing PBS, 0.1% Bovine Serum Albumin, 0.05% Sodium Azide. […] Fluorescence emission was then measured on the TTP Mirrorball plate reader in the FL2 (502 nm-537 nm) and FL5 (677-800 nm) channels following excitation at 488 nm and 640 nm. Data was gated on FL5 perimeter and peak intensity and the FL2 median mean fluorescence intensity of the gated data used for determination of VH binding. Monovalent CD137 specific Humabody® VH, and trispecific molecules with a CD137 binding arm bound to CHO CD137 expressing cells. Trispecific Humabody® VH, with a PD1 binding arm bound to PD1 expressing cells.

[2] = biological target: T2, human PD-1 expressed on CHO cells (human, UniProt Q15116 21-288); assay: FMAT/Mirrorball on CHO huPD1 cells
T2 construct: also called CHO huPD1; CHO human PD1 cells
Description: as §1

Binder | EC50 [1] [nM] | EC50 [2] [nM]
B1 | 0.0443 | 0.24
B2 | 0.39 | 0.792
B3 | 0.207 | 0.144
B4 | 0.314 | 0.264
B5 | 0.735 | 0.844
B6 | 1.17 | 0.766
B7 | 0.419 | 0.805
B8 | 0.499 | 0.346
B9 | 0.0896 | 0.332
B10 | 0.223 | 0.414
